B1: Tyrosine-protein phosphatase non-receptor type 2 (Homo sapiens), P17706-2 (parent)
chain: MPTTIEREFEELDTQRRWQPLYLEIRNESHDYPHRVAKFPENRNRNRYRDVSPYDHSRVKLQNAENDYINASLVDIEEAQRSYILTQGPLPNTCCHFWLMVWQQKTKAVVMLNRIVEKESVKCAQYWPTDDQEMLFKETGFSVKLLSEDVKSYYTVHLLQLENINSGETRTISHFHYTTWPDFGVPESPASFLNFLFKVRESGSLNPDHGPAVIHCSAGIGRSGTFSLVDTCLVLMEKGDDINIKQVLLNMRKYRMGLIQTPDQLRFSYMAIIEGAKCIKGDSSIQKRWKELSKEDLSPAFDHSPNKIMTEKYNGNRIGLEEEKLTGDRCTGLSSKMQDTMEENSESALRKRIREDRKATTAQKVQQMKQRLNENERKRKRPRLTDT
B2: Tyrosine-protein phosphatase non-receptor type 2 (Homo sapiens), P17706-1 (parent)
chain: MPTTIEREFEELDTQRRWQPLYLEIRNESHDYPHRVAKFPENRNRNRYRDVSPYDHSRVKLQNAENDYINASLVDIEEAQRSYILTQGPLPNTCCHFWLMVWQQKTKAVVMLNRIVEKESVKCAQYWPTDDQEMLFKETGFSVKLLSEDVKSYYTVHLLQLENINSGETRTISHFHYTTWPDFGVPESPASFLNFLFKVRESGSLNPDHGPAVIHCSAGIGRSGTFSLVDTCLVLMEKGDDINIKQVLLNMRKYRMGLIQTPDQLRFSYMAIIEGAKCIKGDSSIQKRWKELSKEDLSPAFDHSPNKIMTEKYNGNRIGLEEEKLTGDRCTGLSSKMQDTMEENSESALRKRIREDRKATTAQKVQQMKQRLNENERKRKRWLYWQPILTKMGFMSVILVGAFVGWTLFFQQNAL

Variants of: B1
Settings: with insr_human INSR

effect of a mutation on the interaction	Variant
causing an interaction	MPTTIEREFEELDTQRRWQPLYLEIRNESHDYPHRVAKFPENRNRNRYRDVSPYDHSRVKLQNAENDYINASLVDIEEAQRSYILTQGPLPNTCCHFWLMVWQQKTKAVVMLNRIVEKESVKCAQYWPTDDQEMLFKETGFSVKLLSEDVKSYYTVHLLQLENINSGETRTISHFHYTTWPAFGVPESPASFLNFLFKVRESGSLNPDHGPAVIHCSAGIGRSGTFSLVDTCLVLMEKGDDINIKQVLLNMRKYRMGLIQTPDQLRFSYMAIIEGAKCIKGDSSIQKRWKELSKEDLSPAFDHSPNKIMTEKYNGNRIGLEEEKLTGDRCTGLSSKMQDTMEENSESALRKRIREDRKATTAQKVQQMKQRLNENERKRKRPRLTDT [D182A]

Variants of: B2
Settings: with insr_human INSR

effect of a mutation on the interaction	Variant
causing an interaction	MPTTIEREFEELDTQRRWQPLYLEIRNESHDYPHRVAKFPENRNRNRYRDVSPYDHSRVKLQNAENDYINASLVDIEEAQRSYILTQGPLPNTCCHFWLMVWQQKTKAVVMLNRIVEKESVKCAQYWPTDDQEMLFKETGFSVKLLSEDVKSYYTVHLLQLENINSGETRTISHFHYTTWPAFGVPESPASFLNFLFKVRESGSLNPDHGPAVIHCSAGIGRSGTFSLVDTCLVLMEKGDDINIKQVLLNMRKYRMGLIQTPDQLRFSYMAIIEGAKCIKGDSSIQKRWKELSKEDLSPAFDHSPNKIMTEKYNGNRIGLEEEKLTGDRCTGLSSKMQDTMEENSESALRKRIREDRKATTAQKVQQMKQRLNENERKRKRWLYWQPILTKMGFMSVILVGAFVGWTLFFQQNAL [D182A]
